# Results: US20250387492A1, “HSP90-TARGETING CONJUGATES AND FORMULATIONS THEREOF” (Fusion Pharmaceuticals Inc., priority 2018, published 2025)
# “Also recorded” adds a separate entry of the source.
# Assays:
# [1] = Biodistribution in H69 tumor model; conditions: mouse, in vivo, 5 mg/kg
# Description: (§1) In other studies, biodistribution of the conjugates was studied with H460 and H69 tumor models.
# [2] = Biodistribution in H460 tumor model; conditions: mouse, in vivo, 5 mg/kg
# Description: as §1
# H460 tumor model mice = assay: Biodistribution in H460 tumor model; conditions: 5 mg/kg
# Description: as §1
# [3] = Lu levels in tumor, kidney and liver of mice at 0.5 mg/kg; conditions: for Tumor uptake (comparison): vs Conjugate 1 and Conjugate 2
# H69 tumor model mice = assay: Biodistribution in H69 tumor model; conditions: H69 tumor model, 5 mg/kg, 48 h, individual animals
# Description: as §1
# in vivo = conditions: female, Nude, mouse, iv, 3.7 MBq, total radioactivity
# Experimental: Radioactive conjugate accumulation was measured in tumor, plasma and healthy tissues of NCI-H460 tumor-bearing mice (lung cancer). […] For each tissue, the percent injected dose per gram of tissue % ID/g was calculated.
# [4] = Concentration in H460 tumor, H460 tumor model, individual animals
# [5] = Concentration in Mouse kidney, H460 tumor model, individual animals
# [6] = Concentration in Mouse plasma, H460 tumor model, individual animals
smiles,measurement,setting,value
CCNC(=O)c1nnc(-c2cc(C(C)C)c(O)cc2O)n1-c1ccc(CN2CCN(C(=O)CCNC(=O)[C@@H](CCC(=O)O)NC(=O)[C@@H](CCC(=O)O)NC(=O)[C@@H](CCC(=O)O)NC(=O)CN3CCN4CCN5CCN(CC3)CC(=O)[O][Lu]([O]C(=O)C4)[O]C(=O)C5)CC2)cc1 [Conjugate 2],level at time molar at 24 h,"[1]; Concentration in H69 tumor, H69 tumor model, individual animals",240 nM
same,level at time molar at 24 h,"[1]; Tumor Levels, H69, 5 mg/kg, H69",330 nM
same,level at time molar at 1 h,[2]; [4],1170 nM
same,level at time molar at 48 h,[2]; [4],220 nM
same,level at time molar at 1 h,[2]; [5],1550 nM
same,level at time molar at 24 h,[2]; [5],1450 nM
same,level at time molar at 48 h,[2]; [5],540 nM
same,level at time molar at 1 h,"[2]; Concentration in Mouse liver, H460 tumor model, individual animals",16 nM
same,level at time molar at 24 h,"[2]; Tumor Levels, H460 (2), H460 study (2)",650 nM
same,Clearance from plasma,H460 tumor model mice; H460 and H69 tumor models,clear rapidly from plasma; also recorded: slightly superior
same,Tumor retention (comparison),"H460 tumor model mice; H460 and H69 tumor models, Conjugate 1 vs Conjugate 2",similar
same,Concentration in Mouse kidney,"H460 tumor model mice; H460 tumor model, 48 h, individual animals",540 nM
same,Average Lu in kidney,[3],2.86 % ID/g
same,Average Lu in tumor,[3],0.92 % ID/g
CCNC(=O)c1nnc(-c2cc(C(C)C)c(O)cc2O)n1-c1ccc(CN2CCN(C(=O)CCNC(=O)[C@@H](CCCCN)NC(=O)[C@@H](CCCCN)NC(=O)[C@@H](CCCCN)NC(=O)CN3CCN(CC(=O)O)CCN(CC(=O)O)CCN(CC(=O)O)CC3)CC2)cc1 [Conjugate 3],level at time molar at 48 h,"[1]; Concentration in H69 tumor, H69 tumor model, 48 h, individual animals",200 nM
same,level at time molar at 24 h,"[1]; Concentration in Mouse liver, H69 tumor model, individual animals",80 nM
same,level at time molar at 1 h,"[1]; Concentration in Mouse plasma, H69 tumor model, 1 h, individual animals",1220 nM
same,level at time molar at 24 h,"[1]; Concentration in Mouse plasma, H69 tumor model, individual animals",38 nM
same,Concentration in H69 tumor,H69 tumor model mice,200 nM
same,level at time molar at 48 h,[2]; [4],91 nM
same,level at time molar at 1 h,[2]; [5],4520 nM
same,level at time molar at 48 h,[2]; [5],4290 nM
same,level at time molar at 24 h,[2]; [6],11 nM
same,level at time molar at 48 h,[2]; [6],11 nM
same,Concentration in Mouse liver,"H460 tumor model mice; H460 tumor model, 1 h, individual animals",70 nM
CCNC(=O)c1nnc(-c2cc(C(C)C)c(O)cc2O)n1-c1ccc(CN2CCN(C(=O)CCNC(=O)CC[C@@H](NC(=O)CC[C@@H]3C(=O)[O][Lu]4[O]C(=O)CN5CCN(CC(=O)O)CCN3CCN(CC5)CC(=O)[O]4)C(=O)N3CCN(Cc4ccc(-n5c(C(=O)NCC)nnc5-c5cc(C(C)C)c(O)cc5O)cc4)CC3)CC2)cc1 [Conjugate 9],Average Lu in Liver,[3],2.92 % ID/g
same,Average Lu in kidney,[3],2.40 % ID/g
same,Average Lu in tumor,[3],5.73 % ID/g
same,Tumor uptake (comparison),[3],noticeably higher than Conjugate 1 and Conjugate 2
CCNC(=O)c1nnc(-c2cc(C(C)C)c(O)cc2O)n1-c1ccc(CN2CCN(C(=O)CCNC(=O)[C@@H](CCC(=O)O)NC(=O)[C@@H](CCC(=O)O)NC(=O)[C@@H](CCC(=O)O)NC(=O)COCCOCCNC(=O)CCCCn3cc(CN(CCCNC(=O)CC[C@H](C(=O)O)N4CCN5CCN6CCN(CC4)CC(=O)[O][Lu]([O]C(=O)C6)[O]C(=O)C5)C(=O)CCCNC(=O)CCCc4ccc(I)cc4)nn3)CC2)cc1 [Conjugate 10],Average Lu in Liver,[3],1.51 % ID/g
same,Average Lu in kidney,[3],11.18 % ID/g
same,Average Lu in tumor,[3],8.49 % ID/g
same,Tumor uptake (comparison),[3],noticeably higher than Conjugate 1 and Conjugate 2
"CCNC(=O)c1nnc(-c2cc(C(C)C)c(O)cc2O)n1-c1ccc(CN2CCN(C(=O)CCNC(=O)[C@@H](CCC(=O)O)NC(=O)[C@@H](CCC(=O)O)NC(=O)[C@@H](CCC(=O)O)NC(=O)CN3CCN(CC(=O)O)CCN(CC(=O)O)CCN(CC(=O)O)CC3)CC2)cc1 [^177Lu-2, metal not drawn]",tissue uptake at 6 h,in vivo; Radioactivity in Bone Marrow,0.01 %ID/g
same,tissue uptake at 6 h,in vivo; Radioactivity in Brain,0.01 %ID/g
same,tissue uptake at 6 h,in vivo; Radioactivity in Eyes,0.12 %ID/g
same,tissue uptake at 6 h,in vivo; Radioactivity in Kidney,4.29 %ID/g
same,tissue uptake at 6 h,in vivo; Radioactivity in Liver,0.33 %ID/g
same,tissue uptake at 6 h,in vivo; Radioactivity in Tumor,1.21 %ID/g
